Substitutions are numbered along the chain they refer to.
T1: human TL1A extracellular domain with N-terminal HIS and FLAG tag (human, UniProt O95150 72-251)
T1 construct: the whole entry is named
T1 sequence: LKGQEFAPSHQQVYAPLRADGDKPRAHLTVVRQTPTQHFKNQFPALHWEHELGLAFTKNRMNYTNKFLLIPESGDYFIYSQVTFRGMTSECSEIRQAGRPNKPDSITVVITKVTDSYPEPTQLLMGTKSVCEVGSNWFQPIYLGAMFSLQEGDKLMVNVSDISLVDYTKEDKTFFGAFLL

B1: 320-316 (antibody, human IgG1, name in Kabat numbering, V domains shown)
VH: QVQLVQSGAEVKKPGASVKVSCKASGYTFTSYDINWVRQAPGQGLEWMGWLNPNSGNTGYAQKFQGRVTMTADRSTSTAYMELSSLRSEDTAVYYCAREVPETAAFEYWGQGTLVTVSS
VL: QSVLTQPPSVSGAPGQRVTISCTSSSSDIGAGLGVHWYQQLPGTAPKLLIEGYYNRPSGVPDRFSGSKSGTSASLTITGLLPEDEGDYYCWSYDGTLSALFGGGTKLTVLG
notes: human IgG1, lambda
B2: 320-317 (antibody, human IgG1, name in Kabat numbering, V domains shown)
VH: B1 VH
VL: B1 VL with W91Y
notes: human IgG1, lambda
B3: 320-319 (antibody, human IgG1, name in Kabat numbering, V domains shown)
VH: B1 VH
VL: B1 VL with W91Q, S92Q
notes: human IgG1, lambda
B4: 320-320 (antibody, human IgG1, name in Kabat numbering, V domains shown)
VH: B1 VH
VL: B1 VL with W91Q, S92D
notes: human IgG1, lambda
B5: 320-325 (antibody, human IgG1, name in Kabat numbering, V domains shown)
VH: B1 VH
VL: B1 VL with W91Q, Y93A
notes: human IgG1, lambda
B6: 320-327 (antibody, human IgG1, name in Kabat numbering, V domains shown)
VH: B1 VH
VL: B1 VL with W91Q, Y93Q
notes: human IgG1, lambda
B7: 320-330 (antibody, human IgG1, name in Kabat numbering, V domains shown)
VH: B1 VH
VL: B1 VL with W91Q, Y93L
notes: human IgG1, lambda
B8: 320-331 (antibody, human IgG1, name in Kabat numbering, V domains shown)
VH: B1 VH
VL: B1 VL with W91Q, Y93W
notes: human IgG1, lambda
B9: 320-332 (antibody, human IgG1, name in Kabat numbering, V domains shown)
VH: B1 VH
VL: B1 VL with W91Q, D94A
notes: human IgG1, lambda
B10: 320-333 (antibody, human IgG1, name in Kabat numbering, V domains shown)
VH: B1 VH
VL: B1 VL with W91Q, D94S
notes: human IgG1, lambda
B11: 320-337 (antibody, human IgG1, name in Kabat numbering, V domains shown)
VH: B1 VH
VL: B1 VL with W91Q, D94L
notes: human IgG1, lambda
B12: 320-340 (antibody, human IgG1, name in Kabat numbering, V domains shown)
VH: B1 VH
VL: B1 VL with W91Q, G95A
notes: human IgG1, lambda
B13: 320-341 (antibody, human IgG1, name in Kabat numbering, V domains shown)
VH: B1 VH
VL: B1 VL with W91Q, G95S
notes: human IgG1, lambda
B14: 320-342 (antibody, human IgG1, name in Kabat numbering, V domains shown)
VH: B1 VH
VL: B1 VL with W91Q, G95Q
notes: human IgG1, lambda
B15: 320-343 (antibody, human IgG1, name in Kabat numbering, V domains shown)
VH: B1 VH
VL: B1 VL with W91Q, G95D
notes: human IgG1, lambda
B16: 320-344 (antibody, human IgG1, name in Kabat numbering, V domains shown)
VH: B1 VH
VL: B1 VL with W91Q, G95H
notes: human IgG1, lambda
B17: 320-346 (antibody, human IgG1, name in Kabat numbering, V domains shown)
VH: B1 VH
VL: B1 VL with W91Q, G95L
notes: human IgG1, lambda
B18: 320-347 (antibody, human IgG1, name in Kabat numbering, V domains shown)
VH: B1 VH
VL: B1 VL with W91Q, G95W
notes: human IgG1, lambda
B19: 320-348 (antibody, human IgG1, name in Kabat numbering, V domains shown)
VH: B1 VH
VL: B1 VL with W91Q, G95Y
notes: human IgG1, lambda
B20: 320-349 (antibody, human IgG1, name in Kabat numbering, V domains shown)
VH: B1 VH
VL: B1 VL with W91Q, T96A
notes: human IgG1, lambda
B21: 320-350 (antibody, human IgG1, name in Kabat numbering, V domains shown)
VH: B1 VH
VL: B1 VL with W91Q, T96S
notes: human IgG1, lambda
B22: 320-351 (antibody, human IgG1, name in Kabat numbering, V domains shown)
VH: B1 VH
VL: B1 VL with W91Q, T96Q
notes: human IgG1, lambda
B23: 320-352 (antibody, human IgG1, name in Kabat numbering, V domains shown)
VH: B1 VH
VL: B1 VL with W91Q, T96D
notes: human IgG1, lambda
B24: 320-353 (antibody, human IgG1, name in Kabat numbering, V domains shown)
VH: B1 VH
VL: B1 VL with W91Q, T96H
notes: human IgG1, lambda
B25: 320-354 (antibody, human IgG1, name in Kabat numbering, V domains shown)
VH: B1 VH
VL: B1 VL with W91Q, T96K
notes: human IgG1, lambda
B26: 320-355 (antibody, human IgG1, name in Kabat numbering, V domains shown)
VH: B1 VH
VL: B1 VL with W91Q, T96L
notes: human IgG1, lambda
B27: 320-356 (antibody, human IgG1, name in Kabat numbering, V domains shown)
VH: B1 VH
VL: B1 VL with W91Q, T96W
notes: human IgG1, lambda
B28: 320-357 (antibody, human IgG1, name in Kabat numbering, V domains shown)
VH: B1 VH
VL: B1 VL with W91Q, T96Y
notes: human IgG1, lambda
B29: 320-358 (antibody, human IgG1, name in Kabat numbering, V domains shown)
VH: B1 VH
VL: B1 VL with W91Q, L97A
notes: human IgG1, lambda
B30: 320-359 (antibody, human IgG1, name in Kabat numbering, V domains shown)
VH: B1 VH
VL: B1 VL with W91Q, L97S
notes: human IgG1, lambda
B31: 320-360 (antibody, human IgG1, name in Kabat numbering, V domains shown)
VH: B1 VH
VL: B1 VL with W91Q, L97Q
notes: human IgG1, lambda
B32: 320-364 (antibody, human IgG1, name in Kabat numbering, V domains shown)
VH: B1 VH
VL: B1 VL with W91Q, S98A
notes: human IgG1, lambda
B33: 320-365 (antibody, human IgG1, name in Kabat numbering, V domains shown)
VH: B1 VH
VL: B1 VL with W91Q, S98Q
notes: human IgG1, lambda
B34: 320-366 (antibody, human IgG1, name in Kabat numbering, V domains shown)
VH: B1 VH
VL: B1 VL with W91Q, S98D
notes: human IgG1, lambda
B35: 320-367 (antibody, human IgG1, name in Kabat numbering, V domains shown)
VH: B1 VH
VL: B1 VL with W91Q, S98H
notes: human IgG1, lambda

Assays:
[1] = target: T1, human TL1A extracellular domain with …; assay: SPR Run 4, purified Ab captured on Protein A, TL1A 5 ug/mL, timepoint 44
From the text: (§1) 1.5. Antibody expression and antigen binding as determined by SPR. Using a CM5 sensor chip (GE Healthcare) Protein A (Pierce) was coupled to the chip surface using an amine coupling kit (GE Healthcare). Protein A was coupled on flow cell 1 and 2 (or alternatively 3 and 4) using a BIACORE® T200. […] The amount of supernatant or purified protein (as well as the concentration) injected during the capture stage varied between runs and is specified in the header of the Tables 3-11. At the end of injection of the supernatant or purified antibody the change in response units was measured. This value was reported as Capture Level in Tables 3-11. […] The response units were measured prior to the end of the dissociation phase. […] The sensorgrams were double referenced (flow cell 2 is subtracted from flow cell 1 and a buffer blank). As there were a large number of antibody variants to screen, these were screened across different runs (Tables 3-11). […] A summary of the conditions used in each run is below:
(§2) 2.1. […] In some experiment the antibodies were purified using Protein A chromatography (See 1.4) and purified antibodies were used in BIACORE® (GE Healthcare) experiments.

[2] = target: T1, human TL1A extracellular domain with …; assay: SPR Run 4, purified Ab captured on Protein A, TL1A 5 ug/mL, timepoint 220
From the text: as §1, §2

| Binder | TL1A Binding Level (Early) [1] | TL1A Binding Level (Late) [2] |
| --- | --- | --- |
| B1 | 65 RU | 62 RU |
| B2 | 86 RU | 83 RU |
| B3 | 18 RU | 14 RU |
| B4 | 31 RU | 17 RU |
| B5 | 95 RU | 83 RU |
| B6 | 130 RU | 119 RU |
| B7 | 139 RU | 119 RU |
| B8 | 173 RU | 176 RU |
| B9 | 66 RU | 44 RU |
| B10 | 95 RU | 67 RU |
| B11 | 21 RU | 15 RU |
| B12 | 145 RU | 132 RU |
| B13 | 149 RU | 135 RU |
| B14 | 152 RU | 139 RU |
| B15 | 121 RU | 90 RU |
| B16 | 117 RU | 87 RU |
| B17 | 126 RU | 107 RU |
| B18 | 149 RU | 130 RU |

| Binder | TL1A Binding Level (Early) [1] | TL1A Binding Level (Late) [2] |
| --- | --- | --- |
| B19 | 144 RU | 127 RU |
| B20 | 112 RU | 88 RU |
| B21 | 130 RU | 118 RU |
| B22 | 112 RU | 83 RU |
| B23 | 101 RU | 63 RU |
| B24 | 97 RU | 73 RU |
| B25 | 53 RU | 30 RU |
| B26 | 102 RU | 76 RU |
| B27 | 109 RU | 86 RU |
| B28 | 119 RU | 91 RU |
| B29 | 82 RU | 50 RU |
| B30 | 57 RU | 27 RU |
| B31 | 86 RU | 53 RU |
| B32 | 124 RU | 109 RU |
| B33 | 141 RU | 128 RU |
| B34 | 62 RU | 31 RU |
| B35 | 119 RU | 116 RU |

— patent US20170081400A1 (CEPHALON, published 2017)
